± gives the standard deviation of the averaged measurements.
System: ATP
Test: switch fluorescence ratio, 500 uM ATP over buffer (Cy3 cluster intensity, sum of 5 cycles each) (fold (ratio)); higher = stronger signal-on switching upon ATP binding; sequences stand for … in TCGTCGGCAGCGTCAGATGTGTATAAGAGACAGTTTTTTTTTTTTTTTTTTTTTTTTT…TC
Conditions: aptamer strand: ATP DNA aptamer (quencher-CACCTGGGGGAGTATTGCGGAGGAAGG + anchor), 100 nM annealed; ATP concentration: 500 uM
Method in brief: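 After annealing to 100 nM quencher-labelled ATP aptamer, Cy3-labelled switching-strand clusters on a modified Illumina MiSeq flow-cell were imaged in selection buffer. A second image followed after 15 min with 500 uM ATP at 22 °C, and five such buffer/ATP cycles were done, each separated by NaOH stripping and re-annealing. The fluorescence ratio, averaged per switch-domain sequence, is summed target-cycle over summed buffer-cycle Cy3 intensity per cluster, with clusters outside 100-1000 RFU excluded.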
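Further: ATP exposure 15 min at 22 °C before imaging.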

For AGAGGCCGTT, the switch fluorescence ratio was 0.9965 ± 0.0074.
For AGAGGCGGGA, the switch fluorescence ratio was 0.956 ± 0.11.
With AGAGGCTTAG the switch fluorescence ratio was 1 ± 0.066.
For AGAGGGAAAC, the switch fluorescence ratio was 1.14 ± 0.3.
With AGAGGGAGAT the switch fluorescence ratio was 0.9876 ± 0.0098.
Sequence AGAGGGATTA has a switch fluorescence ratio of 0.999 ± 0.037.
With AGAGGGGGTT the switch fluorescence ratio was 0.971 ± 0.035.
With AGAGGGGTAA the switch fluorescence ratio was 0.998 ± 0.029.
AGAGGGGTAT showed a switch fluorescence ratio of 1.04 ± 0.017.
Sequence AGAGGGTCCT has a switch fluorescence ratio of 1.03 ± 0.034.
AGAGGGTGTG gave a switch fluorescence ratio of 0.992 ± 0.034.
Work on AGAGGTATCG yielded a switch fluorescence ratio of 0.995 ± 0.019.
With AGAGGTTGTT the switch fluorescence ratio was 0.995 ± 0.038.
Sequence AGAGTCAATG has a switch fluorescence ratio of 1.04 ± 0.023.
AGAGTCCCTT was tested, and the switch fluorescence ratio was 1 ± 0.036.
With AGAGTCTGGT the switch fluorescence ratio was 0.965 ± 0.03.
With AGAGTCTTTT the switch fluorescence ratio was 0.9934 ± 0.0016.
Work on AGAGTGGTTA yielded a switch fluorescence ratio of 0.9864 ± 0.0033.
Sequence AGAGTTGGCT has a switch fluorescence ratio of 0.992 ± 0.021.
AGAGTTGGTG showed a switch fluorescence ratio of 0.997 ± 0.031.
AGAGTTGTGG gave a switch fluorescence ratio of 0.982 ± 0.024.
AGAGTTTGTG was tested, and the switch fluorescence ratio was 0.978 ± 0.015.
Sequence AGAGTTTTTA has a switch fluorescence ratio of 1.01 ± 0.035.
Work on AGATAAAATT yielded a switch fluorescence ratio of 0.98 ± 0.056.
AGATAATTAG was tested, and the switch fluorescence ratio was 1 ± 0.023.
AGATACAGTT was tested, and the switch fluorescence ratio was 1.02 ± 0.034.
AGATACATAT showed a switch fluorescence ratio of 1.05 ± 0.0056.
Work on AGATAGAAGG yielded a switch fluorescence ratio of 0.995 ± 0.012.
For AGATAGATCT, the switch fluorescence ratio was 0.9871 ± 0.0059.
In the case of AGATATCAAC, the switch fluorescence ratio is reported as 1.04 ± 0.021.
Sequence AGATATCATT has a switch fluorescence ratio of 0.9848 ± 0.0086.
With AGATATCCGC the switch fluorescence ratio was 1.15 ± 0.05.
Sequence AGATATGAGA has a switch fluorescence ratio of 1.031 ± 0.0075.
AGATATGTTT showed a switch fluorescence ratio of 0.986 ± 0.025.
Sequence AGATATTTTT has a switch fluorescence ratio of 0.975 ± 0.023.
In the case of AGATCAAGGT, the switch fluorescence ratio is reported as 1.02 ± 0.013.
For AGATCATGAG, the switch fluorescence ratio was 0.9708 ± 0.0079.
Work on AGATCGAAGG yielded a switch fluorescence ratio of 1.03 ± 0.018.
AGATCGACGG was tested, and the switch fluorescence ratio was 1.014 ± 0.0095.
Work on AGATCGGGTG yielded a switch fluorescence ratio of 1 ± 0.021.
AGATGGCCGG was tested, and the switch fluorescence ratio was 1 ± 0.065.
In the case of AGATGGGGCC, the switch fluorescence ratio is reported as 1 ± 0.027.
For AGATGGGGTA, the switch fluorescence ratio was 0.9705 ± 0.0077.
For AGATGGGGTG, the switch fluorescence ratio was 1.23 ± 0.35.
AGATGGGGTT gave a switch fluorescence ratio of 1.01 ± 0.028.
Work on AGATGGTCAC yielded a switch fluorescence ratio of 1.032 ± 0.0086.
AGATGTGCCT showed a switch fluorescence ratio of 1.01 ± 0.045.
AGATGTTAGC gave a switch fluorescence ratio of 0.983 ± 0.047.
Work on AGATGTTAGG yielded a switch fluorescence ratio of 0.981 ± 0.029.
For AGATTGAGAA, the switch fluorescence ratio was 0.998 ± 0.028.

Source: the supplement of paper PMC10126150
